Experimental data reported in patent US20060019335A1, “Compositions and methods to promote c-IAP autodegradation” (priority 2004, published 2006).

Legend:
[1] = target: T1, Livin β (Homo sapiens, UniProt Q96CA5); assay: Co-transfection of HeLa cells with Livin β and Smac plasmids, Western blot; assay type: cell-based; conditions: data not shown
T1 construct: expressed in transfected cells; host or cells: HeLa
T1 sequence (Q96CA5 1-280 isoform Q96CA5-2): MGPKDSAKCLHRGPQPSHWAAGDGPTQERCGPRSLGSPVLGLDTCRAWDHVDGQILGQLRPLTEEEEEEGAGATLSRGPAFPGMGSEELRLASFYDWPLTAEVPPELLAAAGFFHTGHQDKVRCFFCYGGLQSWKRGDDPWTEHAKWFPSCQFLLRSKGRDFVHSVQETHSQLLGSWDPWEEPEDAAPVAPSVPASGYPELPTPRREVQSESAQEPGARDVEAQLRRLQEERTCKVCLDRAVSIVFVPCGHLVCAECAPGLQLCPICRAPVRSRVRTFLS
Description: Transfection of cultured Cells—HeLa cells were grown in DMEM supplemented with 10% fetal bovine serum. Cells were seeded onto 6-well plates the day before transfection and transfected at 70% confluence by using Lipofectin combined with Plus reagent (Invitrogen) according to the manufacture's protocols. The IAP expression plasmids (3 μg each for c-IAP1, c-IAP2 and XIAP, and 250 ng each for Livin αand Livin β) together with 2.5 μg of Smac expression plasmids or pcDNA3.1(−) blank plasmid were used for single-well transfection in the absence of antibiotics. The cells were harvested 12 hours after the transfection and lysed with 0.5% CHAPS in 20 mM HEPES (pH 7.4), 10 mM KCl, 1 mM MgCl2 and 1 mM DTT. The lysates were centrifuged and the protein concentrations of the supernatants were quantified by the modified Bradford method (36).
Western Blot analysis—Proteins were resolved by SDS-PAGE and transferred to nitrocellulose filters. The filters were blocked with 5% milk and probed with antibodies as indicated. The signals were visualized with the enhanced chemiluminescence method.
In the current study, Livin was also transiently expressed in HeLa cells to determine the ubiquitylation activity (see FIG. 3B). Briefly, Livin α WT or H269A mutant plasmids together with Smac WT or Smac ΔA mutant, or with pcDNA3.1(−) blank plasmid, were co-transfected into HeLa cells. […]

[2] = target: XIAP (Homo sapiens, UniProt P98170); assay: In vitro ubiquitylation assay of purified XIAP; assay type: biochemical
Sequence of XIAP (P98170 whole entry): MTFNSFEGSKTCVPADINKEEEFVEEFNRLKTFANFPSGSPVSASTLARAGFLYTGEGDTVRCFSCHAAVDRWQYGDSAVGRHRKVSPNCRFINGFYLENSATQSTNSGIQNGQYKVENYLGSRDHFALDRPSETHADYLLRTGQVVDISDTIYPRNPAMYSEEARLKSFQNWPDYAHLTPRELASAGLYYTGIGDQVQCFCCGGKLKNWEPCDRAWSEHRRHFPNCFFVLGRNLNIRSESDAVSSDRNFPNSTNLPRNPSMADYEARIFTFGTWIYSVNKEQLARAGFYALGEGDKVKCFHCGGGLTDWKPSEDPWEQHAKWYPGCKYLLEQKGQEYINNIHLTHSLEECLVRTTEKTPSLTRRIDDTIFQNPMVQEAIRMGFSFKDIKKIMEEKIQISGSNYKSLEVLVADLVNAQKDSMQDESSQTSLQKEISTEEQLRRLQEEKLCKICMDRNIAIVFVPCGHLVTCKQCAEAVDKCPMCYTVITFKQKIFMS
Description: In vitro ubiquitylation assays—In vitro ubiquitylation assays were carried out as previously described (29). IAP proteins (200 nM) were incubated with or without Smac polypeptide for 2 hours at 30° C. in a reaction system containing 50 mM Tris-HCl (pH 7.5), 50 mM NaCl, 2 mM Mg-ATP, 20 μM mammalian ubiquitin, 100 nM rabbit ubiquitin-activating enzyme (E1) and 400 nM of recombinant human ubiquitin-conjugating enzymes (E2). The reactions were stopped by adding equal volumes of 2×SDS sample loading buffer followed by Western Blot analysis.
To determine whether Smac promotes auto-ubiquitylation of XIAP, purified XIAP (without tag) was incubated for 2 hours at 30° C. either with or without different concentrations of Smac or with Smac ΔA in the reconstituted ubiquitylation reaction system (Ub Mix) consisting of 50 mM Tris-HCl (pH 7.5), 50 mM NaCl, 2 mM Mg-ATP, 20 μM mammalian ubiquitin, 100 nM rabbit ubiquitin-activating enzyme (E1) and 400 nM UbCH6 (E2). The reactions were stopped by adding equal volumes of 2×SDS sample loading buffer and the products were subjected to SDS-PAGE followed by immunoblotting with anti-XIAP antibody. The purified XIAP was active in directing poly-ubiquitylation. But the auto-ubiquitylation of XIAP was not enhanced by Smac.

transfection results of Livin β (auto-ubiquitylation, degradation) [1]: substantially similar to that of Livin α | amount of ubiquitylated forms of XIAP with a high molecular weight of ~150 kDa ([2]; UbCH6 as E2, FIG. 6): slightly reduced | auto-ubiquitylation of XIAP in vitro ([2]; purified XIAP without tag, UbCH6 as E2, 2 hours at 30° C., FIG. 6): not enhanced
B1: Smac: wild type (WT) Smac polypeptide from Homo sapiens, SEQ ID NO 1, 239 amino acids; second mitochondria-derived activator of caspase (protein, listed as Homo sapiens)
chain: MAALKSWLSRSVTSFFRYRQCLCVPVVANFKKRCFSELIRPWHKTVTIGFGVTLCAVPIAQKSEPHSLSSEALMRRAVSLVTDSTSTFLSQTTYALIEAITEYTKAVYTLTSLYRQYTSLLGKMNSEEEDEVWQVIIGARAEMTSKHQEYLKLETTWMTAVGLSEMAAEAAYQTGADQASITARNHIQLVKLQVEEVHQLSRKAETKLAEAQIEELRQKTQEEGEERAESEQEAYLRED
